Patent US11833164B2, “Methods of treating Fabry disease in patients having a mutation in the GLA gene” (Amicus Therapeutics, Inc., priority 2019, dated 2023)

Tested on: mutant form of α-Gal A expressed in HEK-293 cells
Assay: HEK assay (GLP HEK / Migalastat Amenability Assay): α-Gal A activity in lysates of transiently transfected HEK-293 cells incubated with or without 10 μM migalastat
Format: cell-based, human
Conditions: for Absolute increase (% WT): 10 μM migalastat versus baseline; for Relative increase: 10 μM migalastat α-Gal A activity relative to baseline; for 10 μM migalastat α-Gal A activity (% WT): 5 days; for 10 μM migalastat α-Gal A activity (% WT) / Baseline α-Gal A activity (% WT): percentage of baseline wild-type α-Gal A activity; for 10 μM migalastat α-Gal A activity (% WT) / Baseline α-Gal A activity (% WT) / Baseline α-Gal A activity / 10 μM migalastat α-Gal A activity: mean ± SEM; for Baseline α-Gal A activity / 10 μM migalastat α-Gal A activity: lysates of HEK-293 cells transfected with the mutant form; for Baseline α-Gal A activity: incubated 5 days in the absence of migalastat; for 10 μM migalastat α-Gal A activity: incubated 5 days with 10 μM migalastat
Method in brief: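 Activity reported as 4-MU released (nmol/mg/hr), mean±SEM, from lysates of transiently transfected HEK-293 cells expressing mutant α-Gal A, cultured with or without 10 μM migalastat.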

B1: H186Y (protein)
chain: MQLRNPELHLGCALALRFLALVSWDIPGARALDNGLARTPTMGWLHWERFMCNLDCQEEPDSCISEKLFMEMAELMVSEGWKDAGYEYLCIDDCWMAPQRDSEGRLQADPQRFPHGIRQLANYVHSKGLKLGIYADVGNKTCAGFPGSFGYYDIDAQTFADWGVDLLKFDGCYCDSLENLADGYKYMSLALNRTGRSIVYSCEWPLYMWPFQKPNYTEIRQYCNHWRNFADIDDSWKSIKSILDWTSFNQERIVDVAGPGGWNDPDMLVIGNFGLSWNQQVTQMALWAIMAAPLFMSNDLRHISPQAKALLQDKDVIAINQDPLGKQGYQLRQGDNFEVWERPLSGLAWAVAMINRQEIGGPRSYTIAVASLGKGVACNPACFITQLLPVKRKLGFYEWTSRLRSHINPTGTVLLQLENTMQMSLKDLL
  Absolute increase (% WT): 39.8 % WT
  Relative increase: 1.4
  10 μM migalastat α-Gal A activity (% WT): 123.6 ± 8.9 % WT
  Baseline α-Gal A activity: 37644 ± 2421 nmol/mg/h
  10 μM migalastat α-Gal A activity: 53613 ± 2581 nmol/mg/h
Absence of migalastat
  Baseline α-Gal A activity (% WT): 83.8 ± 4.5 % WT

B2: S188T (protein)
chain: MQLRNPELHLGCALALRFLALVSWDIPGARALDNGLARTPTMGWLHWERFMCNLDCQEEPDSCISEKLFMEMAELMVSEGWKDAGYEYLCIDDCWMAPQRDSEGRLQADPQRFPHGIRQLANYVHSKGLKLGIYADVGNKTCAGFPGSFGYYDIDAQTFADWGVDLLKFDGCYCDSLENLADGYKHMTLALNRTGRSIVYSCEWPLYMWPFQKPNYTEIRQYCNHWRNFADIDDSWKSIKSILDWTSFNQERIVDVAGPGGWNDPDMLVIGNFGLSWNQQVTQMALWAIMAAPLFMSNDLRHISPQAKALLQDKDVIAINQDPLGKQGYQLRQGDNFEVWERPLSGLAWAVAMINRQEIGGPRSYTIAVASLGKGVACNPACFITQLLPVKRKLGFYEWTSRLRSHINPTGTVLLQLENTMQMSLKDLL
  Absolute increase (% WT): 24.0 % WT
  Relative increase: 1.5
  10 μM migalastat α-Gal A activity (% WT): 69.5 ± 4.5 % WT
  Baseline α-Gal A activity: 17041 ± 1389 nmol/mg/h
  10 μM migalastat α-Gal A activity: 26198 ± 2461 nmol/mg/h
Absence of migalastat
  Baseline α-Gal A activity (% WT): 45.4 ± 2.5 % WT

B3: S188Y (protein)
chain: MQLRNPELHLGCALALRFLALVSWDIPGARALDNGLARTPTMGWLHWERFMCNLDCQEEPDSCISEKLFMEMAELMVSEGWKDAGYEYLCIDDCWMAPQRDSEGRLQADPQRFPHGIRQLANYVHSKGLKLGIYADVGNKTCAGFPGSFGYYDIDAQTFADWGVDLLKFDGCYCDSLENLADGYKHMYLALNRTGRSIVYSCEWPLYMWPFQKPNYTEIRQYCNHWRNFADIDDSWKSIKSILDWTSFNQERIVDVAGPGGWNDPDMLVIGNFGLSWNQQVTQMALWAIMAAPLFMSNDLRHISPQAKALLQDKDVIAINQDPLGKQGYQLRQGDNFEVWERPLSGLAWAVAMINRQEIGGPRSYTIAVASLGKGVACNPACFITQLLPVKRKLGFYEWTSRLRSHINPTGTVLLQLENTMQMSLKDLL
  Absolute increase (% WT): 31.5 % WT
  Relative increase: 2.0
  10 μM migalastat α-Gal A activity (% WT): 64.1 ± 3.5 % WT
  Baseline α-Gal A activity: 12244 ± 1167 nmol/mg/h
  10 μM migalastat α-Gal A activity: 23849 ± 1725 nmol/mg/h
Absence of migalastat
  Baseline α-Gal A activity (% WT): 32.6 ± 2.6 % WT

B4: S188P (protein)
chain: MQLRNPELHLGCALALRFLALVSWDIPGARALDNGLARTPTMGWLHWERFMCNLDCQEEPDSCISEKLFMEMAELMVSEGWKDAGYEYLCIDDCWMAPQRDSEGRLQADPQRFPHGIRQLANYVHSKGLKLGIYADVGNKTCAGFPGSFGYYDIDAQTFADWGVDLLKFDGCYCDSLENLADGYKHMPLALNRTGRSIVYSCEWPLYMWPFQKPNYTEIRQYCNHWRNFADIDDSWKSIKSILDWTSFNQERIVDVAGPGGWNDPDMLVIGNFGLSWNQQVTQMALWAIMAAPLFMSNDLRHISPQAKALLQDKDVIAINQDPLGKQGYQLRQGDNFEVWERPLSGLAWAVAMINRQEIGGPRSYTIAVASLGKGVACNPACFITQLLPVKRKLGFYEWTSRLRSHINPTGTVLLQLENTMQMSLKDLL
  Absolute increase (% WT): 3.2 % WT
  10 μM migalastat α-Gal A activity (% WT): 3.2 ± 0.2 % WT
  10 μM migalastat α-Gal A activity: 1159 ± 61 nmol/mg/h
Absence of migalastat, mean activity below the limit of detection (<142 nmol/mg/hr)
  Baseline α-Gal A activity (nmol/mg/hr): BLD (“BLD” indicates that the mean α-Gal A activity was below the limit of detection (<142 nmol/mg/hr))

B5: S188A (protein)
chain: MQLRNPELHLGCALALRFLALVSWDIPGARALDNGLARTPTMGWLHWERFMCNLDCQEEPDSCISEKLFMEMAELMVSEGWKDAGYEYLCIDDCWMAPQRDSEGRLQADPQRFPHGIRQLANYVHSKGLKLGIYADVGNKTCAGFPGSFGYYDIDAQTFADWGVDLLKFDGCYCDSLENLADGYKHMALALNRTGRSIVYSCEWPLYMWPFQKPNYTEIRQYCNHWRNFADIDDSWKSIKSILDWTSFNQERIVDVAGPGGWNDPDMLVIGNFGLSWNQQVTQMALWAIMAAPLFMSNDLRHISPQAKALLQDKDVIAINQDPLGKQGYQLRQGDNFEVWERPLSGLAWAVAMINRQEIGGPRSYTIAVASLGKGVACNPACFITQLLPVKRKLGFYEWTSRLRSHINPTGTVLLQLENTMQMSLKDLL
  Absolute increase (% WT): 25.7 % WT
  Relative increase: 1.4
  10 μM migalastat α-Gal A activity (% WT): 86.3 ± 4.9 % WT
  Baseline α-Gal A activity: 22589 ± 1833 nmol/mg/h
  10 μM migalastat α-Gal A activity: 32197 ± 2515 nmol/mg/h
Absence of migalastat
  Baseline α-Gal A activity (% WT): 60.6 ± 4 % WT

B6: S188F (protein)
chain: MQLRNPELHLGCALALRFLALVSWDIPGARALDNGLARTPTMGWLHWERFMCNLDCQEEPDSCISEKLFMEMAELMVSEGWKDAGYEYLCIDDCWMAPQRDSEGRLQADPQRFPHGIRQLANYVHSKGLKLGIYADVGNKTCAGFPGSFGYYDIDAQTFADWGVDLLKFDGCYCDSLENLADGYKHMFLALNRTGRSIVYSCEWPLYMWPFQKPNYTEIRQYCNHWRNFADIDDSWKSIKSILDWTSFNQERIVDVAGPGGWNDPDMLVIGNFGLSWNQQVTQMALWAIMAAPLFMSNDLRHISPQAKALLQDKDVIAINQDPLGKQGYQLRQGDNFEVWERPLSGLAWAVAMINRQEIGGPRSYTIAVASLGKGVACNPACFITQLLPVKRKLGFYEWTSRLRSHINPTGTVLLQLENTMQMSLKDLL
  Absolute increase (% WT): 36.4 % WT
  Relative increase: 2.8
  10 μM migalastat α-Gal A activity (% WT): 57.1 ± 2.8 % WT
  Baseline α-Gal A activity: 7746 ± 839 nmol/mg/h
  10 μM migalastat α-Gal A activity: 21273 ± 1477 nmol/mg/h
Absence of migalastat
  Baseline α-Gal A activity (% WT): 20.7 ± 2 % WT

B7: M187L (protein)
chain: MQLRNPELHLGCALALRFLALVSWDIPGARALDNGLARTPTMGWLHWERFMCNLDCQEEPDSCISEKLFMEMAELMVSEGWKDAGYEYLCIDDCWMAPQRDSEGRLQADPQRFPHGIRQLANYVHSKGLKLGIYADVGNKTCAGFPGSFGYYDIDAQTFADWGVDLLKFDGCYCDSLENLADGYKHLSLALNRTGRSIVYSCEWPLYMWPFQKPNYTEIRQYCNHWRNFADIDDSWKSIKSILDWTSFNQERIVDVAGPGGWNDPDMLVIGNFGLSWNQQVTQMALWAIMAAPLFMSNDLRHISPQAKALLQDKDVIAINQDPLGKQGYQLRQGDNFEVWERPLSGLAWAVAMINRQEIGGPRSYTIAVASLGKGVACNPACFITQLLPVKRKLGFYEWTSRLRSHINPTGTVLLQLENTMQMSLKDLL
  Absolute increase (% WT): 29.2 % WT
  Relative increase: 6.7
  10 μM migalastat α-Gal A activity (% WT): 34.5 ± 1.9 % WT
  Baseline α-Gal A activity: 1924 ± 64 nmol/mg/h
  10 μM migalastat α-Gal A activity: 12810 ± 929 nmol/mg/h
Absence of migalastat
  Baseline α-Gal A activity (% WT): 5.3 ± 0.2 % WT

B8: S188C (protein)
chain: MQLRNPELHLGCALALRFLALVSWDIPGARALDNGLARTPTMGWLHWERFMCNLDCQEEPDSCISEKLFMEMAELMVSEGWKDAGYEYLCIDDCWMAPQRDSEGRLQADPQRFPHGIRQLANYVHSKGLKLGIYADVGNKTCAGFPGSFGYYDIDAQTFADWGVDLLKFDGCYCDSLENLADGYKHMCLALNRTGRSIVYSCEWPLYMWPFQKPNYTEIRQYCNHWRNFADIDDSWKSIKSILDWTSFNQERIVDVAGPGGWNDPDMLVIGNFGLSWNQQVTQMALWAIMAAPLFMSNDLRHISPQAKALLQDKDVIAINQDPLGKQGYQLRQGDNFEVWERPLSGLAWAVAMINRQEIGGPRSYTIAVASLGKGVACNPACFITQLLPVKRKLGFYEWTSRLRSHINPTGTVLLQLENTMQMSLKDLL
  Absolute increase (% WT): 18.5 % WT
  Relative increase: 1.4
  10 μM migalastat α-Gal A activity (% WT): 68.6 ± 4.3 % WT
  Baseline α-Gal A activity: 18465 ± 1552 nmol/mg/h
  10 μM migalastat α-Gal A activity: 25569 ± 2083 nmol/mg/h
Absence of migalastat
  Baseline α-Gal A activity (% WT): 50.1 ± 3.7 % WT

B9: L189S (protein)
chain: MQLRNPELHLGCALALRFLALVSWDIPGARALDNGLARTPTMGWLHWERFMCNLDCQEEPDSCISEKLFMEMAELMVSEGWKDAGYEYLCIDDCWMAPQRDSEGRLQADPQRFPHGIRQLANYVHSKGLKLGIYADVGNKTCAGFPGSFGYYDIDAQTFADWGVDLLKFDGCYCDSLENLADGYKHMSSALNRTGRSIVYSCEWPLYMWPFQKPNYTEIRQYCNHWRNFADIDDSWKSIKSILDWTSFNQERIVDVAGPGGWNDPDMLVIGNFGLSWNQQVTQMALWAIMAAPLFMSNDLRHISPQAKALLQDKDVIAINQDPLGKQGYQLRQGDNFEVWERPLSGLAWAVAMINRQEIGGPRSYTIAVASLGKGVACNPACFITQLLPVKRKLGFYEWTSRLRSHINPTGTVLLQLENTMQMSLKDLL
  Absolute increase (% WT): 20.1 % WT
  Relative increase: 1.3
  10 μM migalastat α-Gal A activity (% WT): 92.7 ± 3.2 % WT
  Baseline α-Gal A activity: 23204 ± 1213 nmol/mg/h
  10 μM migalastat α-Gal A activity: 29510 ± 1181 nmol/mg/h
Absence of migalastat
  Baseline α-Gal A activity (% WT): 72.6 ± 3.1 % WT
